Laboratory results published in a protein production outcome set (Wang et al. 2014).

Assay: label from the status in PepcDB records

Sequence	protein production
MVLPSGLALPPLEYTVALLAGTLVVTALLYALEPPINQRTVVALTPWMALGGALHAFHQPPIEAYRPVVTPLFGAPAVYLTTFVTLGVVWVTLTLFSVRRGHSETISRNLGYIGIGLLTVLLVIAVVMALESGLLGLIWPTIAVIVATVVTAVTVLAVALWRTPVVVRMRYAAPTVVFAHMLDGVSTAVGADVIGITERTPIPARIMEFAGTLPTAPYLGKGWLFVFVKLLVAIGVVFLLDDYLEEDPVEASLLLAVVTAVGIGPATNNIVLFLFSPV	failed
MVLPSSHRILVVDDNAVTRYSVRRVLEHHQFVVEEAGTGGEGLVRLAAEAFAAVVLDVNLPDMSGFDIVRTLRAEPRTALLPVVHVSAASIATGDMITGLDAGADAYLIHPVDPNVLVATLRTLLRARNAEEALRLSEARFREIFEHIGAPIAVVDAQLHTQEANAAFQRLIGSATPCEAINVPGLDQCATVQALTAALGRRERWSGTLSILRDGAVRETEWRVSPYREPDLGLLFVEDVTEQRLREREQRQELDTATSELAHQIAERQRTEIQLLQAQKMEALGKLTGGIAHDFNNLLTSIISGLDMIQLAVESNRIERVPRLAEIATGSAHRAAALTQRMLAFARKQSLDAQPFDVNARVRSLEDMLRRSIGENIALELQLAEAPLVAIADANQLENVVLNLVINARDALQGHGTIRIQSAPHTAYNDPELEDGDYVAVNVIDDGSGIDPAILSQVFEPFFTTKPIGEGTGLGLSMTYGFARQSGGTARITSTLGSGTTVALLLPRGLTVGEALPPPPPNAPRGRSQRILLVDDTDVVRMMVSEVLSDAGYHVIEAENADGALAQLRADAQIDMVVSDVGLPGMNGRDMADVARDLRPGLPILFITGYAENAATRQEFLAEGMALLPKPFSLNDLLNTVSRMLG	failed
MVLWHKKDRKLGKHLRSVLSVSNNSPLSPAAFSGFKAVIKGIEKERIAGVGKTEGIKNEKTAGVGKTEGIEKERIAGVGKTEGIENTEGTEKAGEIKNNEKIKKAEETENILEIEKTFRNKKKQGVSKGDVDKENSTAFLYNTEAKKLTFHGNIYEILPLFLNVRNLYASLPFFEELQACAERLEKDPQDATALFQKAVLMYKARRFETALQLTAKVLKIIPDDHRVWYNRGVILSEMGRLEEAIAAYDRTIELEPAFEIAWDNKGVVLARLGRFEEALEIYDKILQKFPEYAEAWAGKGSIFLALDREEEALEAYSSALRIRPEYLEALTSTGSLLSRLGRYEESLKIYDKALQLVPKDPRLLAAKGFVLSEMGKQEEALENCNRALELQPGFVPALEIKVRILSEIGRQKNKTSQ	failed
MVMLNTHVVECLQACGRCAAACDYCASSCLREGHGADMARCIALDLDCAAACRLCAAMMARESEFSTHMCTLCARICEVCGDECARHEPRHCQECATACHACASACRAMARPLEHHHHHH	not failed
MVNDVEVTVTYTASDEDATVTYVDDDKGGAQVGDIVTVTGKTDDSTTYTVTIPDGYEYVGTDGGVVSSDGKTVTITFTADDSDNVVIHLKHGLEHHHHHH	not failed
MVNEVQGIGIPTSHTSVQTTPTKEISRTNTINTVDESKTTIDPDQYKPKLELLSERLNEEMKRIGTDINFSYNDTIKGLVVSVKDANGDKVIREIPSKEAVELMQRMRDVIGIIFDKRG	failed
MVNGSPHEKGCTYTALTEVAKTLNEEGIDTEIFWIGKKPLTGCTACKSCTKTGRCAFNDRANDFLDIAKGADGFIFGSPVHYASATGAITSFMDCVFYSDLLGGRQSFYLKPAATVISARRAGTTTTFDQLNKYFTLSEMPVISSRYWNMVHGAKPEDVKKDLEGLQIMRVLARNMAWFLKCKEAGMKAGVPLPVKEERMSTNFIRE	failed
MVNHGYPLGRSLLSIAMAMLGALSLVFPLPLLTQDMVDSERSLPLLGDHPLEERLIDGMDEGIKKNYRGAIAIFTELILLDPSYADAYFNRGIARARIADYQGAITDHSQAITLNPQLAEAYKARGKIYWQLGEQAQAIADLEAALALFSDQENLVSQREAWEQLQTWHGNP	failed
MVNTNLEELRTQVDQLNIDLLELISKRANLVQEIGKIKGTQGSLRFDPLREREMLNTILAANEGPFEDSTVQKLFKEIFKAGLELQEEDHSKALLVSRKNKKEDTIVTVKGLPIGNGEPVFVFGPCSVESYEQVAAVAESIKAKGLKLIRGGAFKPRTSPYDFQGLGLEGLKILKRVSDEYGLGVISEIVTPADIEVALDYVDVIQIGARNMQNFELLKAAGRVDKPILLKRGLSATIEEFIGAAEYIMSQGNGKIILCERGIRTYEKATRNTLDISAVPILKKETHLPVMVDVTHSTGRKDLLLPCAKAALAIEADGVMAEVHPDPAVALSDSAQQMDIPEFEEFWNAILASNLVPHKIK	not failed
MVNVDGKREEDEEVIEVEGMGANKSARMLERLHVVHQYVARWVYSHGIPFNAIANDDLRRMLEVAGQFGPGVTPPSQYQLREPLLKEEVVRMKGLMEEQEDEWRVNGCSVTTDSWSDRKRRSIMNLCINCKEGTMFLSSKDCFDDSHTGEYIFAYVNEYCIKNLGGDHVVQVVTNNATNNITAAKLLKEVRPTIFWTFCATHTINLMVEGISKLAMSDEIVKMAKAFTIFIYAHHQTLSMMRSFTKRRDIVRPGIIGFASAFRTLKSLVEKEENLKVKRKKKKKLSKATTMVVL	failed
MVPAPEAIRQALQERLLARLDHPDPLYRDLLQDYPRRGGKMLRGLLTVYSALAHGAPLEAGLEAATALELFQNWVLVHDDIEDGSEERRGRPALHRLHPMPLALNAGDAMHAEMWGLLAEGLARGLFPPEVLLEFHEVVRRTAYGQHLDLLWTLGGTFDLRPEDYFRMVAHKAAYYTAVAPLRLGALLAGKTPPAAYEEGGLRLGTAFQIVDDVLNLEGGEAYGKERAGDLYEGKRTLILLRFLEEAPPEERARALALLALPREAKPEAEVGWLLERLLASRALAWAKAEAKRLQAEGLALLEAAFQDLPGKEALDHLRGLLAALVERRA	not failed
MVPCWNHGNITRSKAEELLSRTGKDGSFLVRASESISRAYALCVLYRNCVYTYRILPNEDDKFTVQASEGVSMRFFTKLDQLIEFYKKENMGLVTHLQYPVPLEEEDTGDDPEEDTVESVVSPPELPPRNIPLTASSCEAKEVPFSNENPRATETSRPSLSETLFQRLQSMDTSGLPEEHLKAIQDYLSTQLAQDSEFVKTGSSSLPHLKKLTTLLCKELYGEVIRTLPSLESLQRLFDQQLSPGLRPRPQVKG	not failed
MVPDYFSASEWTIIADVLGANSRHLFELYALKQSNHYQSLMGSKAGTFEDIVDAYLAYLQVAVVNPAMDKALLRLQRYATDVRKGSIPYEKLRFGASWRHPPQTEDPTQNSEWAKIQLMDFVQALVNTEFAVGILYTQRDPSFFRPISQGIKRCLVRWNVDEISVSCARTHVGLRFYREVENIKGRCFCCRQGLTFSKITLRRDVGGKNLQLQNGVIVTTDRSSLQRLKQKPDLIYGIWERPHGFNLRSVQENNEHNN	failed
MVPIPNGVSAKETHKLMGRGIAAFALLLLLQVSGSIVTQSGLAAPWWNAMFLWLLLTGIGCFSVASIRGRGLRWTSSILSLLVLAGLLLWPAAVPTTVPVDIGTPWLWAMINVGAAWSAFAFGTLPGCVYTVVIGSVFAVVRTLPQSGSASPSTAIQDASFSTVLGIIICLTIGILRQASERVDTAAENAINRYREAAAETALSNERTRVDGLLHDSVMSALLTASRSGSSLERLSSAELARSALARLGEHEIKQTDATTVSVSELASRIRFTVQDDGDTPTVTVTGEGSTSLLLSGQVVRALFEASTEAVANAVRHSNATRCEVRVLGQDPKGIARVVVSVKDNGDGFRQELVSDRRLGIKVSIIGRMRTIGGTADISSHPGKGTEVILTWAGEA	failed
MVQDQIRYDILVQDALRGVIRKVLSEVAKAGLPGSHHFFITFLTNAPGVKISTRLKSRYPEQMTIVLQHQFRDLNVSETAFEVTLSFREVSEKLVIPFHSIQVFYDPVAAFEAAFDLPSNLNSKEGENLENIASTPVILSDTQKKEKKFPKEQISKTNKDSSNNDTKQSADVVSLDSFRKKLEHHHHHH	not failed
MVQEEKAMEAINDALRALRKRHLLEEGAHAPAISALSKPLISQGSEWKEKTEKLETELQQCYKAQSRLSEQLVIEVAESRTSKAILQEKELLINDLQKELTQRREDCTRLQEELEEKTKTVDVLIAENLEIRSQLEEMTSRVQKAETENKMLIDRWMLQKMQDAERLNEANDLYEEMLAKLKANGLETLARQQVDGIVRRNEDGTDHFVESTIPSTCANRIHAHEGGCGSIVFEYNSGTLFTGGQDRAVKMWDTNSGTLIKSLYGSLGNILDMAVTHDNKSVIAATSSNNLFVWDVSSGRVRHTLTGHTDKVCAVDVSKFSSRHVVSAAYDRTIKLWDLHKGYCTNTVLFTSNCNAICLSIDGLTVFSGHMDGNLRLWDIQTGKLLSEVAGHSSAVTSVSLSRNGNRILTSGRDNVHNVFDTRTLEICGTLRASGNRLASNWSRSCISPDDDYVAAGSADGSVHVWSLSKGNIVSILKEQTSPILCCSWSGIGKPLASADKNGYVCTWT	failed
MVQLDQRVRFKSATSIISIEMWERFSFYGMQALLVYYLYFDVAAGGLGLDQTQATGLVGVYGALLYLCCWAGGWVSDRVLGAEKTLLGGAISVTIGHLVLAGLGGKIGLAIGLGCIAIGSGFVKTAAITVLGSRHGEQEGDAKADPAFQLFYLGINVGALLGPLLTGWLSSRYSFEMGFGAAAVLMIGGLGIYAALRKPMLQSFPLEVKKALLRAQNPAEKHVISTAFAAVAVLCGVLLYLLLTETVSADQLAGALLLVTIGAALWLIIQPLRHPQVSSEEKRKVLAFIPIFVCSTAFWAVQAQTYGVLAVYSQERVDRMVGDFEIPAAWSQSLNPFFILALSIPISLWFMRGSRAPRVKIGISIGVIIAGSGLLVLIPFVGMPLAPVWVLPLSVFLISLGELFIGPGGMAATAHHAPRIFATRFSALYFLTLAIGMSIAGNVSKFYDPTNHTSELRYFAVFGISIIVIGVGSLMVAKKVG	failed
MVQSSVRRKGARPRDRQTGEPGWDDSLYDDNGEPVQDGRGSGRGGGSAQGGGDGDGPPDEAKGHSRHGGGRRRGGKGDGGGGRPRRRRRVLRWSATVLAVLILGTAGAGYLYYQHLNDNIKKDDLYLGDDKDRAAKPKANAAGQTPLNILLIGSDARDSAANQKLGGAKDTYGGTPRADVQMLLHLSADRSNMSVVSMPRDTLLEIPKCTDPKTSHTYAAITYPTMTNNSLGRGGPGCTVATWEKFTDIHIDHFMMVDFAGVVSMADAIGGVPVCVDANIYSHTSTGHGSGLKLKDGTTSIKGKQALQWLRTRYGFEDGSDIGRTKAQHQYMNSMVRQLRENATLSNPNKLRKLAETATNALTVDDGLGTVSKLYDLSKELKKVPTSRITMTTMPWVYSSDGNRVLPKPNDAAKVFRLLREDIALDGKDKKKSPAQKAVAPAHADDKIAVQVQNGTRTSALAPVGGRANAMAQLLVGKGFTGAAADSSTVLSEDKTVIRYPSADLKGDAQRVAKSLGVPLSSVEKSASVSGVTLIVGGDWRSGTTYKAAEDDDTTPASAKLDKGSDTGACMHVDPDYTWS	failed
MVQTRSQDDSKDKGKEVEGANPLEERMLRLESMMDAHSKEMMKHMAEMTMVMSRSTAHKLREEHSSGERSLPRSSTSTDDRVGYQDHRRDQGQDQDHRRDQQQNQDHRRDNRLDQVRYEPQQQHYGNLTRLGKIDLPRFDGTGIKEWLFKVEEFFGIDFTPADLKVKMVAIHFDSHAATWHHSFMQSGVGLEVLYDWPGYVRLLK	failed
MVRDNGPGERLSIPPLSGLRKFRRTLSQKYDNHYCYLWMVSSALEYVRKFGIEKEPSRPFHAYAICPKDVPHRSPSIELSYISEVVWLNRIEDDLCYMNIRSLPVSPFSFSNIEKIGFQR	not failed
MVRLAEERDFPGFLGLAGQVEHWFGPMVEDAGFHEAVREHIRRGAALVAVAPDPDTDAGPGAGTGTELLGGLLFGTDTDADAPVHHVHWLVVSRQARAGGVGRALMRDAMRRWVREPAGVEVVTFGADHPGATESGARAFYERLGFTPAEVVAPGPEGGSRQLFRRGAQVRPTRGEHVTTYTGGPA	failed
